Reference: PMC8546591, “Neodymium as Metal Cofactor for Biological Methanol Oxidation: Structure and Kinetics of an XoxF1-Type Methanol Dehydrogenase” (mBio, 2021)

How the values were obtained:
[1] = tested on: C=O; experiment: purified protein; details: pH 7, 45°C, 1 mM PES, 100 μM DCPIP, 200 nM enzyme, no ammonium, first 2 min, formaldehyde from dissolved paraformaldehyde
[2] = tested on: CO; experiment: purified protein; details: pH 7, 45°C, 1 mM PES, 100 μM DCPIP, 200 nM enzyme, no ammonium, first 2 min

Question: With “Nd-XoxF1 (XoxF1-type methanol dehydrogenase) (Methylacidimicrobium sp. AP8)” as the substance, how does the Km [1] read?
Answer: 1.6 ± 0.8 µM

Question: What about the Km [2] of the same substance?
Answer: 1.4 ± 0.6 µM
